Biological target: T1, enriched paired helical filament tau protein (ePHF) (human)
Assay: direct ELISA
Settings: remark: other sources report otherwise

Row | EC50 [nM] | Binder
1 | 0.125 | V0024 (antibody, V domains shown) VH: QVQLQQPGTELVKPGASVKLSCKASGYTFTRFWMHWVKQRPGQGLEWIGNINPNNGGTDNNERFKSKATLTVDRSSSTAYMQLSSLTSEDSAVYYCARGTGTGAMDYWGQGTSVTVSS VL: DVVMTQTPLSLPVSLGDQASISCRSSQSLVHSNGNTHLYWYLQKPGQSPKLLIYRVSSRFSGVPDRFSGSGSGTDFTLKISRVEAEDLGVYFCFQGTHVPRTFGGGTKLEIK

Biological target: T1, enriched paired helical filament tau …
Assay: follow up analysis, method not stated
Settings: remark: other sources report otherwise

Row | selectivity for ePHF over wild type tau [fold] | Binder
2 | > 100 | V0024 (antibody, V domains shown) VH: QVQLQQPGTELVKPGASVKLSCKASGYTFTRFWMHWVKQRPGQGLEWIGNINPNNGGTDNNERFKSKATLTVDRSSSTAYMQLSSLTSEDSAVYYCARGTGTGAMDYWGQGTSVTVSS VL: DVVMTQTPLSLPVSLGDQASISCRSSQSLVHSNGNTHLYWYLQKPGQSPKLLIYRVSSRFSGVPDRFSGSGSGTDFTLKISRVEAEDLGVYFCFQGTHVPRTFGGGTKLEIK

Biological target: wild type tau (Homo sapiens (Human)), P10636
Assay: Octet
Settings: remark: other sources report otherwise

Row | Kd [nM] | Binder
3 | > 200 | V0052 (antibody, V domains shown) VH: not shown VL: SIVMTQTPKFLLVSAGDRVTITCKASQSVSNDVAWYQQKPGQSPKLLIYYASNRCTGVPDRFTGSGYGTDFTFTISTVQAEDLAVYFCQQDYRSPLTFGAGTKLELK
4 | > 200 | V0004 (antibody, V domains shown) VH: QVQLQQPGAELVKPGASVKLSCKASDYTFTNYWMHWVKQRPGRGLEWIGRIDPNSGGTRYNEKFKNKATLTVDKPSSTAYMHLSSLTSEDSAVYYCAGDFDVWGTGTTVTVSS VL: DIQMTQSPASLSASVGETVTITCRASGNIHNYLAWYQQRQGKSPQLLVYNAKTLPDGVPSRFSGSGSGTQYSLKINSLQPEDFGSYCCQHFWSTPLTFGAGTKLELK
5 | > 200 | V0024 (antibody, V domains shown) VH: QVQLQQPGTELVKPGASVKLSCKASGYTFTRFWMHWVKQRPGQGLEWIGNINPNNGGTDNNERFKSKATLTVDRSSSTAYMQLSSLTSEDSAVYYCARGTGTGAMDYWGQGTSVTVSS VL: DVVMTQTPLSLPVSLGDQASISCRSSQSLVHSNGNTHLYWYLQKPGQSPKLLIYRVSSRFSGVPDRFSGSGSGTDFTLKISRVEAEDLGVYFCFQGTHVPRTFGGGTKLEIK
6 | > 200 | V0022 (antibody, V domains shown) VH: QVQLQQPGTELVKPGSSVNLSCKASGFTFTRYWMHWVKERPGHGLEWIGNINPNNGGTDFNEKFKNKATLTVHKSSTTVFIQLSSLTSEDSAVYYCARGTGTGAMDYWGQGTSVTVSS VL: DVVMTQTPLSLPVSLGDQASISCRSSQSLVHNNGITYLYWYLQKPGQSPKLLIYRVSNRFSGVPDRFGGSGSGTDFTLKISRVEAEDLGVYFCFQGTHVPRTFGGGTKLEIK
7 | > 200 | V0023 (antibody, V domains shown) VH: QVQLQQPGTELVKPGASVKLSCKASGYTFTIFWMHWVKQRPGHGLEWIGKINPNNGGGDYNEKFKSKATLTVDKSSTTAYLQLSSLTSEDSAVYYCARGTGTGAMDYWGQGTSVTVSS VL: DVVMTQTPLSLPVSLGDHASISCRSSQSLVHSNGITHLYWYLQRPGQTPKLLIYRVSNRFSGVPDRFSGSGSGTDFTLKISSVEAEDLGVYFCFQGTHVPRTFGGGTKLEIE
8 | > 200 | V0026 (antibody, V domains shown) VH: QVQLQQSGPELVKPGASVKISCKASGYSFTDYYINWVKQRPGQGLEWIGWIFPGSDSTYYNEKFKGKATLTVDKSSSTASMLLSSLTSEDSAVYFCARPTVVARDYAMDYWGQGTSVTVSS VL: DVLMTQTPLSLPVSLGDQASISCRSSQSIVYSNGNTYLEWYLQKPGQSPKLLIYKVSNRFSGVPDRFSGSGSGTDFTLKISRVEAEDLGVYYCFQGSHVPYTFGGGTKLEIK
9 | > 200 | V0021 (antibody, V domains shown) VH: QVQLQQPGIELVKTGASVKLSCKASGYTFTSNWMHWLKQRPGQGLEWIGNINPNNSETNYNEKFRKKATLTVDKSSSAAYMQLISLTSEDSAVYYCARANYYGGSQFAYWGQGTLVTVSA VL: DVVMTQTPLSLCVSLGDQASISCRSSQSLVHSNGKTYLHWYLQKPGQSPNLLIYKVSNRFSGVPDRFSGSGSGTDFTLKISRVEAEDLGVYFCSQSTHVPFTFGSGTKLEIK
10 | > 200 | V0020 (antibody, V domains shown) VH: QVQLQQPGTDLVKPGASVKLSCKASGYTFTSYWMHWLKQRPGQGLEWIGNINPNNSDANYNEKFKSKATLTVDKSSSAAYMQLISLTSEDSAVYYCARANYYGGSQFAYWGQGTLVTVSA VL: DVVVTQTPLSLPVSLGDQASISCRSSQSLVHSNGKTYLHWYLQKPGQSPNLLIYKVSNRFSGVPDRFSGSGSGTDFTLKISRVEAEDLGVYFCSQSTHVPFTFGSGTKLEIK
11 | > 200 | V0058 (antibody, V domains shown) VH: not shown VL: DIVMTQSPSSLSVSAGEKVTMSCKSSQSLLSSGNQKNYLAWYQQKPGQPPKLLIYGASTRESGVPDRFTGSGSGTDFTLTISSVQAEDLAVYYCQNDHSHPYTFGGGTKLEIK
12 | > 200 | V0055 (antibody, V domains shown) VH: not shown VL: DIVMTQSPSSLSVSAGEKVTMSCKSSQSLLNSGNQKNYLAWYQQKPGQPPKLLIYGASTRESGVPDRFTGSGSGTDFTLTISSVQAEDLAVYYCQNDHSHPYTFGGGTKLEIK
13 | > 200 | V0054 (antibody, V domains shown) VH: not shown VL: DIVMTQSPSSLSVSAGEKVTMSCKSSQSLLNSGNQKNYLAWYQQKPGQPPKLLIYGTSTRESGVPDRFTGSGSGTDFTLTISSVQAEDLAVYYCQNDHSHPYTFGGGTKLEIK
14 | > 200 | V0057 (antibody, V domains shown) VH: not shown VL: DIVMTQSPSSLSVSAGEKVTMSCKSSQSLLNSGNQKNYLAWYQQKPGQPPKLLIYGASTRESGVPDRFTGSGSGTDFTLTISSVQAEDLAVYYCQNDHSHPYTFGGGTKLEIK
15 | > 200 | V0027 (antibody, V domains shown) VH: QVQLQQSGPELVKPGASVKISCKASGYTFTEYYLNWMKQRPGQGLEWIGWIFPGRGSTNYNEKFKGKATLTVDKSSSTAYMLLSSLTSEDSAVYFCARPTIVARDYAMDYWGQGTSVTVSS VL: DVLMTQTPLSLPVSLGDQASISCRSSQSIVHRNGNTYLEWYLQKPGQSPKLLIYKVSNRFSGVPDRFSGSGSGTDFTLKISRVEAEDLGVYYCFQGSHVPFTFGSGTKLEIK
16 | > 200 | V0032 (antibody, V domains shown) VH: QVQLKQSGAELVRPGASVKLSCKTSGYTFTDYYIKWVKQRPGQGLEWIARIYPGSGNTYYNEKFKGKATLTAEKSSSTAYMQLSSLTSEDSAVYFCARPAYYSKDYAMEYWGQGTSVTVSS VL: DVLMTQTPLSLPVSLGDQASISCRSSQSIVYTNGNTYLEWYLQKPGQSPKLLIYKVSNRFSGVPDRFSGSGSGTDFTLKISRVEAEDLGVYYCFQGSHVPYTFGGGTKLEIK
17 | > 200 | V0031 (antibody, V domains shown) VH: QVQLQQPGTELVKPGASVKLSCKASGYTFTSYWMHWVKQRPGQGLEWIGNIYPSNGGTYYNEKFKSKATLTVDKSSSTAYMQLSSLTSEDSAVYYCARSSVVGRDYAMDYWGQGTSVTVSS VL: DVLMTQTPLSLPVSLGDQASIACRSSQSIVHSNGNTYLEWYLQKPGQSPELLIYKVSNRFSGVPDRFSGSGSGTDFTLKISRVEAEDLGVYYCFQGSHVPYTFGGGTKLEIK
18 | > 200 | V0050 (antibody, V domains shown) VH: EVQLQQSGPELVKPGASVKIPCRASGYTFTDYNMDWVKQSHGKTLEWIGDINPNNGGTIYNQKFKGKATLTVDKSSSTAYMELRSLTSEDTAVYYCARGRGMGYYALDYWGQGTSVTVSS VL: DIQMTQSPASLSASVGETVTFTCGASENVYGALNWYQRKQGKSPQLLIYGATNLADGMSSRFSGSGSGRQYSLKISSLHPDDVATYYCQNVLTIPWTFGGGAKLEIK

Biological target: iPHF (Homo sapiens (Human)), P10636
Assay: Octet, antibody on biosensor tips
Settings: remark: other sources report otherwise

Row | Kd [nM] | Binder
19 | 2.8 | V0024 (antibody, V domains shown) VH: QVQLQQPGTELVKPGASVKLSCKASGYTFTRFWMHWVKQRPGQGLEWIGNINPNNGGTDNNERFKSKATLTVDRSSSTAYMQLSSLTSEDSAVYYCARGTGTGAMDYWGQGTSVTVSS VL: DVVMTQTPLSLPVSLGDQASISCRSSQSLVHSNGNTHLYWYLQKPGQSPKLLIYRVSSRFSGVPDRFSGSGSGTDFTLKISRVEAEDLGVYFCFQGTHVPRTFGGGTKLEIK
20 | 5.5 | V00016 (antibody, V domains shown) VH: EVQLQQSGAELVKPGASVKLSCTASGFNIKDYYIHWVKQRTEQGLEWIGRIDPEDGETKYAPKFQGKATIAADTSSNTAYLHLNSLTSEDTAVYYCAREFSYAMDYWGQGTSVTVSS VL: NIMMTQSPSSLAVSAGEKVTMSCKSSQSVLYSSNQKNYLAWYQQKPGQSPKLLIYWASTRESGVPDRFTGSGSGTDFTLTISSVQAEDLAVYYCHQYLSSRTFGGGTKLEIK

From patent US12709641B2
